Data set [1] has as its system 2-keto-3-deoxygluconate-6-phosphate aldolase (EDA). Description: EDA activity assay with saturating amounts of E. coli EDD extract (LDH/NADH coupled). To be noted: for EDA activity (comparison in words): saturating E. coli EDD extract. The format is biochemical, Saccharomyces cerevisiae. The protocol: EDA genes isolated from a variety of sources were expressed in yeast and evaluated independently of EDA activity, to identify EDA activities suitable of inclusion in an engineered yeast strain. […] The activity of integrated EDAs in Thermosacc-Gold haploids, were also evaluated in this manner. The table below describes oligonucleotide primers used to isolate the various EDA genes.
EDA extracts were prepared using the following protocol. Day 1
Grow 5 ml LB-Kan preps of BF1055 (BL21/DE3 with pET26b empty vector) and BF1706 (BL21DE3 with pET26b+E. coli EDD).
Grow 50 ml LB-Kan prep of BF1055, 2% (v/v) inoculate.
Grow 50 ml prep of BF1706 using Novagen's Overnight Express (46.45 ml LB-Kan, 1 ml solution 1, 2.5 ml solution 2, 50 μl solution 3, 5 μl of 1M MnCl2, 50 μl of 0.5 M FeCl2), 2% (v/v) inoculate.
Inoculate to OD600 of 0.2.
EDD extractions (adapted from Chemyan et al, Protein Science 16:2368-2377, 2007): • 1) Pellet cells in 50 ml conical tubes, 4° C., 3,000 rpm, 10 mins, discard supernatant. • 2) Resuspend in 2 ml degassed PDGH buffer (20 mM MES pH 6.5, 30 mM NaCl, 5 mM • MnCl2, 0.5 mM FeCl2, 10 mM 2-mercaptoethanol, 10 mM cysteine, sparged with nitrogen gas). Move to hungate tube. • 3) Add 0.1% Triton X-100, 10 ng/ml DNase, 10 μg/ml PMSF, 10 μg/ml TAME (Nα-(p-toluene sulfonyl)-L-arginine methyl ester), 100 μg/ml lysozyme. • 4) Sparge hungate tube with nitrogen gas, cap and seal. Incubate 2 hours at 37° C., swirl occasionally. • 5) Clarify by centrifugation in 2-ml tube, 4° C., 10 mins, 14,000 rpm. Keep supernatant. • 6) Treat with 150 mM pyruvate and 10 mM sodium cyanoborohydride (work in hood) to inactivate aldolase activity. Incubate 30 mins at room temperature. • 7) During incubation, pre-equilibrate PD-10 column from GE • a. Remove top cap, pour off storage buffer. • b. Cut off bottom tip, fit in 50 ml conical with adapter. • c. Pour 5 ml of 20 mM MES buffer, pH 6.5 (total of 5 times). Discard flow-through. • 8) Run sample through column, then add MES buffer to a total of 2.5 ml volume added. Discard flow-through. • 9) Run 3.5 ml 20 mM MES pH 6.5 buffer to elute protein. Discard column in appropriate waste receptacle. • 10) Perform Bradford assay (1:10 or 1:20 dilution). EDA extractions: • 1) Spin down in 50 ml conicals, 4° C., 3,400 rpm, 5 mins. Wash 2× with 25 ml water. • 2) Resuspend in 1 ml lysis buffer (50 mM Tris-HCl, pH 7, 10 mM MgCl2, 1× protease inhibitor. […]
Each reaction contains 50 mM Tris-HCl, pH 7, 10 mM MgCl2, 0.15 mM NADH, 15 μg LDH, saturating amounts of EDD determined empirically (usually ˜100 μg), 1-50 μg EDA (depending on level of activity), and 1 mM 6-phosphogluconate. Reactions are started by the addition of 6-phosphogluconate and monitored for 5 mins at 30° C.

Data set [2] relates to xylose isomerase. As to the kind of experiment: Heterologous xylose isomerase expression in yeast (active yes/no). The format is cell-based, Saccharomyces cerevisiae. To be noted: xylose isomerase of the donor organism expressed in engineered yeast (S. cerevisiae).
The test system of another data set is C5 strain. As to the kind of experiment: In vivo evaluation of xylose isomerase constructs in C5 strain, fermentation on xylose. Type of data set: cell-based, Saccharomyces cerevisiae. To be noted: final sample at 372 hours. From the text:
The engineered strain was designed to include the following genetic modifications: the native Pho13 gene (alkaline phosphatase specific for p-nitrophenyl phosphate) was disrupted by inserting a construct containing the native TLK1 gene (Transketolase-1); the native aldose reductase gene (Gre3) was disrupted by inserting a construct containing the native high-affinity glucose transporter-7 gene (HXT7); the native glucose-repressible alcohol dehydrogenase II gene (adh2) was disrupted by inserting a construct containing the native xylulokinase gene (XYLK); and the native orotidine-5′ phosphate decarboxylase gene (ura3) was disrupted by inserting a construct containing the native transaldolase 1 gene (TAL1). The resulting strain had the following genotype: pho13::TKL1, gre3::HXT7, adh2::XYLK, ura3::TAL1.
The C5 strain was transformed using standard protocols with either p426GPD (as a control) or the chimeric variants XI-R, XI-Rp5, XI-Rp10, or XI-Rp15. The transformed cells were grown on SC-glucose minus uracil initially and then passaged onto SC-xylose minus uracil. Cultures of each of the above constructs were made in SC-xylose minus uracil—and grown for one week. The cultures were grown aerobically at 30° C. with 250 rpm agitation, 1 vvm sparge of process air, 21% O2. The pH was controlled at about 5.0 with 1N NaOH. […] At 24 hours elapsed fermentation time the fermentation was switched to anaerobic conditions.
Oxygen was purged with 100% N2 sparge at 1 vvm until percent O2 was below 1%. Aeration was then set at 0.25 vvm 100% N2.
The final sample also measured biomass by dry cell weight.

Data set [3] concerns xylose isomerase. Description: In vitro xylose isomerase activity assay (sorbitol dehydrogenase/NADH coupled, A340; Km, specific activity, Ki for xylitol). Type of data set: biochemical, Saccharomyces cerevisiae.
Method: About 20 μg of soluble whole cell extract was incubated in the presence of 100 mM Tris, pH 7.5, 10 mM MgCl2, 0.15 mM NADH (Sigma, St. Louis, Mo.), and about 2 U sorbitol dehydrogenase (Roche) at about 30° C. […] A Beckman DU-800 was utilized with an Enzyme Mechanism software package (Beckman Coulter, Inc.), and the change in the A340 was monitored for 2-3 minutes.
Approximately 20 μg of soluble whole cell extract from each transformed cell line, prepared using Y-PER plus reagent as described above, was incubated in a solution containing about 100 mM Tris, pH 7.5, 10 mM MgCl ? 2, 0.15 mM NADH (Sigma, St. Louis, Mo.), and 2 U Sorbitol Dehydrogenase (SDH) (Roche, Indianapolis, Ind.) at about 30° C. […] A Beckman DU-800 spectrophotometer was utilized with an Enzyme Mechanism software package (Beckman Coulter, Inc, Brea, Calif.), and the change in the A340 was monitored for 2-3 minutes.
Approximately 20 μg of soluble whole cell extract from each transformed cell line was prepared using Y-PER plus reagent as described above was incubated in a solution containing about 100 mM Tris, pH 7.5, 10 mM MgCl2, 0.15 mM NADH (Sigma, St. Louis, Mo.), and 2 U sorbitol dehydrogenase (SDH) (Roche, Indianapolis, Ind.) at about 30° C. […] A Beckman DU-800 spectrophotometer was utilized with an Enzyme Mechanism software package (Beckman Coulter, Inc, Brea, Calif.), and the change in the A340 was monitored for 2-3 minutes.
Approximately 20 μg of soluble whole cell extract from each transformed cell line was prepared using Y-PER plus reagent as described above was incubated in a solution containing about 100 mM Tris, pH 7.5, 10 mM MgCl ? .2, 0.15 mM NADH (Sigma, St. Louis, Mo.), and 2 U Sorbitol Dehydrogenase (SDH) (Roche, Indianapolis, Ind.) at about 30° C. […] A Beckman DU-800 spectrophotometer was utilized with an Enzyme Mechanism software package (Beckman Coulter, Inc, Brea, Calif.), and the change in the A340 was monitored for 2-3 minutes.
The Clostridiales enzyme was further characterized at 1974 μg to confirm the presence of activity.

Where “and” joins values, the source holds several entries; their conditions need not be identical. Equal entries are not always repeated.

B1: E. coli EDA: 2-keto-3-deoxygluconate-6-phosphate aldolase of Escherichia coli expressed in yeast (protein, UniProt P0A955 1-213, looked up)
KHG/KDPG aldolase: MKNWKTSAESILTTGPVVPVIVVKKLEHAVPMAKALVAGGVRVLEVTLRTECAVDAIRAIAKEVPEAIVGAGTVLNPQQLAEVTEAGAQFAISPGLTEPLLKAATEGTIPLIPGISTVSELMLGMDYGLKEFKFFPAEANGGVKALQAIAGPFSQVRFCPTGGISPANYRDYLALKSVLCIGGSWLVPADALEAGDYDRITKLAREAVEGAKL
As for B1, the “EDA activity, repeated experiment (FIG. 24)” value in data set [1] (100 μg of EDD and 25 μg of EDA cell lysates (5 μg of E. coli EDA), linear range) was “most active of those EDA's tested”. In addition, the “EDA activity (comparison in words)” value in data set [1] (first experiment) was “higher activity as compared to the other EDA activities evaluated herein”. Moreover, in data set [1] (first experiment, E. coli EDA slope outside linear range, underestimated), the “EDA activity relative to the EDA from P. aeruginosa” value was “approximately 16 fold”.

B2: Ruminococcus flavefaciens: native xylose isomerase from Ruminococcus flavefaciens strain 17 (SEQ ID NO: 31) (protein, listed as Ruminococcus flavefaciens)
chain: MEFFSNIGKIQYQGPKSTDPLSFKYYNPEEVINGKTMREHLKFALSWWHTMGGDGTDMFGCGTTDKTWGQSDPAARAKAKVDAAFEIMDKLSIDYYCFHDRDLSPEYGSLKATNDQLDIVTDYIKEKQGDKFKCLWGTAKCFDHPRFMHGAGTSPSADVFAFSAAQIKKALESTVKLGGNGYVFWGGREGYETLLNTNMGLELDNMARLMKMAVEYGRSIGFKGDFYIEPKPKEPTKHQYDFDTATVLGFLRKYGLDKDFKMNIEANHATLAQHTFQHELRVARDNGVFGSIDANQGDVLLGWDTDQFPTNIYDTTMCMYEVIKAGGFTNGGLNFDAKARRGSFTPEDIFYSYIAGMDAFALGFRAALKLIEDGRIDKFVADRYASWNTGIGADIIAGKADFASLEKYALEKGEVTASLSSGRQEMLESIVNNVLFSL
Consider B2, for which the “Active? (yes/no)” value in the data set on xylose isomerase [2] is “Yes”. In the data set on C5 strain, this molecule registered a Glucose of 0 g/L. In the data set with C5 strain (listed as XI-R), the “Dry Cell Wt” value was 2.20 g/L and 2.03 g/L; the Ethanol is 15.65 g/L and 15.5 g/L; the Xylose was 3.14 g/L and 3.85 g/L. In addition, the “Specific Activity” value in the data set on xylose isomerase [3] (soluble whole cell extract, xylose 40-500 mM, 30° C., pH 7.5) was 1.718 µmol/min/mg. Moreover, the “Specific Activity” value with xylose isomerase [3] (total soluble crude extracts from S. cerevisiae, xylose concentrations between 40 and 500 nM (so in the source), Michaelis Mentin plots) was determined as 0.9605 µmol/min/mg.

B3: Codon-optimized EDA from P. aeruginosa: codon-optimized version of the P. aeruginosa EDA gene (protein, UniProt O68283 1-220, looked up)
2-dehydro-3-deoxy-phosphogluco …: MHNLEQKTARIDTLCREARILPVITIDREADILPMADALAAGGLTALEITLRTAHGLTAIRRLSEERPHLRIGAGTVLDPRTFAAAEKAGASFVVTPGCTDELLRFALDSEVPLLPGVASASEIMLAYRHGYRRFKLFPAEVSGGPAALKAFSGPFPDIRFCPTGGVSLNNLADYLAVPNVMCVGGTWMLPKAVVDRGDWAQVERLSREALERFAEHRRH
modifications: codon-optimized gene
As to B3, the “EDA activity (comparison in words)” value in data set [1] (first experiment) is given as “slight improvement over the native sequence”.

(Values after US8114974B2, “Engineered microorganisms with enhanced fermentation activity” (Verdezyne, Inc., priority 2009, dated 2012).)
